Reference: US10640556B2, “Anti amphiregulin antibodies, compositions comprising same and uses thereof” (Yeda Research and Development Co. Ltd., priority 2015, dated 2020)

T1: murine AREG (Mus musculus, UniProt P31955)
T1 construct: purchased Peprotech
T1 sequence (P31955 94-191 limits assumed): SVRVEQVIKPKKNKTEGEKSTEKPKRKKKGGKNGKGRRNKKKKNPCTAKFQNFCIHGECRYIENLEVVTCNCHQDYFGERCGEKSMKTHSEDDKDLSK

T2: human AREG (Homo sapiens, UniProt P15514)
T2 sequence (P15514 101-198 limits assumed): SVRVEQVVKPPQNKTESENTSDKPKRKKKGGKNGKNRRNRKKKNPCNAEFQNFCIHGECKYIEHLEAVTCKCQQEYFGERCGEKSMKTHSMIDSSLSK


Key:
[1] = test system: feedback regulatory components of the EGFR signaling pathways; assay: qPCR of feedback regulators of EGFR signaling in MCF10A cells; assay type: cell-based, human
Procedure: FIGS. 3A-3F illustrate that amphiregulin acts as a weak inducer of transcription-mediated feedback regulatory loops of EGFR signaling. […] Shown are mRNA profiles representative of two independent biological repeats.
Total RNA was extracted using the PerfectPure RNA Cultured Cell Kit (5-prime) according to the manufacturer's instructions. Total RNA quantity and quality were determined using the NanoDrop® ND-1000 Spectrophotometer. Complementary DNA was synthesized using the High Capacity Reverse Transcription kit (Applied Biosystems, Life Technologies). Primers for the positive (EREG, TGF-alpha and HB-EGF), negative regulators (MIG6/RALT, DUSP1 and DUSP6) and beta2-microglobulin (B2M) were as previously described (Lauriola M et al., (2014) Nat Commun. 5: 5073). The KiCqStart primers from Sigma-Aldrich were used to detect the levels of human AREG (H_AREG_3). Real-time qPCR analysis was performed with SYBR Green (Applied Biosystems) and specific primers on the StepOne Plus Real-Time PCR system (Applied Biosystems). qPCR signals (cT) were normalized to B2M.

EGFR [2] = molecular target: T3, EGFR (Homo sapiens, UniProt P00533); assay: Receptor downregulation assay in MCF10A cells; assay type: cell-based; design: endogenous in cells; conditions: AREG 1 ng/mL or 100 ng/mL
Procedure: FIGS. 2G-2H illustrate that AREG is a low affinity ligand able to induce only limited receptor downregulation in normal epithelial cells. FIG. 2G is a graph illustrating results of the immortalized human mammary cell line MCF10A used for ligand displacement assays. […] The cells were later washed and lysed, and the associated radioactivity was determined. The extent of ligand displacement (mean±range of triplicates) is depicted; and FIG. 2H is a graph illustrating results of MCF10A cells grown in 12 well plates and starved overnight for serum factors. […] The cells were later washed, lysed in 1N NaOH and their radioactivity was determined. Averages of triplicates and S.D. values (bars) are presented.
(§1) At the end of the incubation period, the cells were placed on ice, washed with ice cold medium and subjected to mild acid wash (0.2 M Na-acetate buffer, pH 4.5, and 0.5 M NaCl) for 2 minutes, followed by 2 washes in ice cold medium. […] Finally, cells were lysed in 1 N NaOH, and their radioactivity was determined.

EGFR [3] = molecular target: T3, EGFR; assay: Ligand displacement of radiolabeled EGF on MCAS cells; assay type: binding; design: endogenous in cells; host or cells: MCAS, MLS, H358, A549; conditions: displacement of 125I-EGF (50 ng/mL), 3 hours on ice
Procedure: FIGS. 2A-2F illustrate that AREG is a low affinity ligand that induces limited receptor downregulation, as well as weak ubiquitination and degradation of EGFR. […] The cells were later washed and lysed, and the associated radioactivity was determined. The extent of ligand displacement (mean±range of triplicates) was plotted with respect to binding in the absence of an unlabeled ligand; FIG. 2B is a graph showing results of MCAS ovarian cells incubated in a 12 well plate and starved overnight for serum factors. […] The cells were later washed and lysed in 1 N NaOH. Cell-associated radioactivity was determined. […] Washed immunocomplexes, along with whole extracts, were immunoblotted with the indicated antibodies.
For ligand displacement assays, cells were grown in 12-well plates and serum-starved for 12-15 hours. […] The cells were later washed, lysed and their radioactivity counted.

EGFR [4] = molecular target: T3, EGFR; assay: Receptor downregulation assay in MCAS cells; assay type: cell-based; design: endogenous in cells; host or cells: MCAS, MLS, H358, A549; conditions: ligand 50 ng/ml
Procedure: (§2) The cells were later washed and lysed, and the associated radioactivity was determined. […] The cells were later washed and lysed in 1 N NaOH. Cell-associated radioactivity was determined. […] Washed immunocomplexes, along with whole extracts, were immunoblotted with the indicated antibodies.
as §1

EGFR [5] = molecular target: T3, EGFR; assay: Ligand-induced receptor ubiquitination assay (MCAS, MLS, H358, A549 cells); assay type: cell-based; design: endogenous in cells; host or cells: MCAS, MLS, H358, A549; conditions: 10 minutes
Procedure: as §2
For determination of ligand-induced receptor ubiquitination, cells were extracted in lysis buffer (50 mM HEPES pH 7.5, 150 mM NaCl, 10% glycerol, 1% Triton X-100, 1 mM EDTA, 1 mM EGTA, 10 mM NaF and 30 mM 3-glycerol phosphate) with freshly added 0.2 mM Na3VO4, a protease inhibitor cocktail and 2 mM N-ethylmaleimide (NEM). Twenty μL of protein G agarose beads and 1 μg of antibody were added to 500 μg of protein lysate. After a 2 hour incubation at 4° C., the immunoprecipitates were collected by centrifugation at 14,000 rpm at 4° C. for 1 minute. The supernatant was discarded and the pellet was washed thrice, prior to electrophoresis.

EGFR [6] = assay: AREG-induced EGFR phosphorylation in HeLa cells (immunoblot); assay type: cell-based, human; conditions: AREG 100 ng/ml, mAb 0.1-50 μg/ml, FIG. 10A
Procedure: FIGS. 6A-6F illustrate AR30, an anti-AREG monoclonal antibody, that inhibits auto-phosphorylation of EGFR. FIG. 6A is a photograph of a Coomassie blue staining of an acrylamide gel showing a purified fraction of AREG isolated from bacteria and purified on a NiNTA column. The molecular weight marker lane indicates a 15 kilodalton band; FIG. 6B, cells were seeded in a 24 well plate, washed and incubated with increasing concentrations of the purified TRX-AREG fusion protein (8.5, 85, 850, 8500 ng/ml). […] Following a 10-min long incubation, the cells were lysed and cleared extracts immunoblotted (IB) with an anti-phosphotyrosine antibody (PY-99); FIG. 6C, 96 well plates were coated with the indicated ligands (0.1 μg/ml), and then incubated for 3 hours with three different mAbs specific to AREG. Thereafter, wells were incubated for two hours with an anti-mouse antibody conjugated to HRP, followed by a 30 minutes incubation with ATBS. […] Serum from non-immunized mice was used as a negative control; FIG. 6E, HeLa cells were pre-incubated with (or without) mAb AR30 (20 μg/mL) and increasing concentrations of AREG. Thereafter, whole cell lysates were immunoblotted (IB) using an antibody specific to the phosphorylated form of EGFR (tyrosine 1068) or an antibody to EGFR; and FIG. 6F, HeLa cells were incubated with (or without) AREG (100 ng/mL) in the presence of increasing concentrations of mAb AR30 (5, 10, 20 and 50 μg/mL). Thereafter, cells were lysed and cleared extracts immunoblotted (IB) using the indicated antibodies.
FIG. 10A illustrates that anti-AREG mAbs inhibit ligand-induced activation of EGFR. HeLa cells were incubated with (or without) AREG (100 ng/ml) in the presence of increasing concentrations of mAb AR30, mAb AR 37 or mAb AR558 (0.1, 0.2, 0.5, 0.75, 1.5, 3.5, 6.25, 12.5, 25 and 50 μg/ml). Thereafter, cells were lysed and cleared extracts immunoblotted (IB) using the indicated antibodies, including an antibody specific to the phosphorylated (active) for of EGFR (pEGFR).

murine AREG = molecular target: T1, murine AREG; assay: ELISA on plates coated with murine AREG; assay type: binding
Procedure: FIG. 9A—96 well plates were coated with the indicated ligands (400 ng/mL), including a murine HB-EGF fused to thioredoxin. Plates were incubated for 2 hours with 3 different mAbs specific to AREG (as indicated). Thereafter, wells were incubated for two hours with an anti-mouse antibody conjugated to HRP, followed by a 30 minute incubation with ATBS. Signals were determined using an ELISA reader (set at 415 nm). […] Thereafter, wells were incubated for two hours with an anti-mouse antibody conjugated to HRP, followed by a 30-min incubation with ATBS. Signals were determined using an ELISA reader (set at 415 nm). […] 96-well plates were coated with decreasing concentrations (400, 200, 100, 50, 25 and 10 ng/mL) of the indicated 3 ligands, and then incubated for 2 hours with three different mAbs specific to AREG (AR30, AR37 and AR558) at […]. Thereafter, wells were incubated for two hours with an anti-mouse antibody conjugated to HRP, followed by a 20-min incubation with ATBS. Signals were determined using an ELISA reader (set at 420 nm).

human AREG = molecular target: T2, human AREG; assay: Antigenic determinant comparison of anti-AREG mAbs; assay type: binding; conditions: data not shown
MCF10A cells = assay: MTS proliferation assay of MCF10A cells; assay type: cell-based, human; conditions: 72 h, absence or presence of AREG, relatively high mAb concentrations
Procedure: Proliferation assays using MTS were performed on MCF10A cells (1,000 cells per well). C ells were plated on the day before and treated for 72 h with the indicated mAbs (1, 5, 10, 20 or 50 ug/mL). Increasing concentrations of the indicated mAbs (either alone or in combination with AREG) were used in medium supplemented with 1% serum and AREG (either at 10 or 100 ng/mL).

[7] = test system: Cal-27 human head and neck cancer cells; assay: Cal-27 head and neck tumor xenograft in nude mice; assay type: in vivo; conditions: Cal-27 tumors, 300 μg per injection intraperitoneally twice a week
Procedure: Female nude mice were inoculated subcutaneously with Cal-27 human head and neck cancer cells (2×10^6). Once tumors became palpable (5-7 days) mice were randomized and intraperitoneally injected with saline (Control), or with anti-AR mAbs: AR30, AR37 or AR558 (each at 300 μg per injection). Mice were treated with mAbs twice a week and tumor volume was followed. Shown are averages and SD values from at least 5 mice per group.
To test the ability of anti-AREG antibodies to reduce growth of human tumor cells implanted in immunocompromised mice, Cal 27 tumor cells were used which were inoculated subcutaneously and randomized for treatment after tumors became palpable. […] Furthermore, studies testing pairs of two mAbs illustrate their enhanced anti-tumor activities (data not shown), this can be attributed to the fact that the mAbs bind to distinct antigenic determinants of amphiregulin.

| Molecule | induction of feedback regulator transcripts (qPCR) ([1]; ligand 10 ng/ml) | induction of feedback regulator transcripts (qPCR) ([1]; ligand 100 ng/ml) | EGFR downregulation (EGFR [2]) | lower binding affinity compared to EGF (EGFR [3]) | EGFR downregulation (EGFR [4]) | ubiquitination of EGFR (EGFR [5]; ligand 100 ng/mL, MCAS, MLS, H358, A549 cells) | ubiquitination of EGFR (EGFR [5]; ten-fold higher concentration (1 μg/mL)) | AREG-induced phosphorylation of EGFR (EGFR [6]) | recognition of murine AREG (ELISA) (murine AREG; ligand coated at 400 ng/mL, FIG. 9A) | recognition of murine AREG (ELISA) (murine AREG; ligand coated at 400-10 ng/mL, FIG. 9C) | antigenic determinant targeted (human AREG) | inhibition of proliferation (MCF10A cells) | tumor growth [7] |
| --- | --- | --- | --- | --- | --- | --- | --- | --- | --- | --- | --- | --- | --- |
| AREG: amphiregulin, low-affinity EGF-family ligand of EGFR | hardly detectable signals | clear, time dependent transcription of the six tested genes | effective downregulation of EGFR was observed only when testing very high concentrations | approximately 100 fold | approximately 30% | failed to do so | comparable levels of receptor ubiquitination as EGF and TGF-alpha |  |  |  |  |  |  |
| AR37: anti-AREG monoclonal antibody from AREG knockout mice; heavy chain SEQ ID NO: 62, light chain SEQ ID NO: 93 (antibody, not fully specified; AR37 heavy chain IgG complete amino acids coding sequence; (35)..(35) Xaa can be any naturally occurring amino acid; (73)..(73) Xaa can be any naturally occurring amino acid; AR37 light chain (IgG) complete amino acids coding sequence) heavy: EVQLVESGGDLVKPGGSLKLSCAASGFTFSNSGMXWFRLTPDKRLEWVATISSGSTYTFYPDTVKGRFIISRXNAKNTLYLQMSSLKSEDTAIYYCVREIWPVWGAGTTITVSSAKT light: QAVVTQESALSTSPGETVTLTCRSSTGAVTTSNYANWVQEKPDHLFTGLLGDTDNRPPGVPARFSGSLLGDKAALTITGAQTEDEAIYFCALWYSNHWVFGGGTKLTVL |  |  |  |  |  |  |  | low concentrations of the antibodies were sufficient for blocking | recognized the murine molecule better than the other two mAbs tested | recognised the murine molecule | engages a different determinant of human AREG | Moderate inhibition | comparably inhibit tumor growth |
